Biological target: anti-idiotype antibody 3H1
Experiment: Ab1-Ab2 binding inhibition assays; competitor 8019

Sequence of anti-idiotype antibody 3H1 (VL, as listed by the source, chain 1 of 2): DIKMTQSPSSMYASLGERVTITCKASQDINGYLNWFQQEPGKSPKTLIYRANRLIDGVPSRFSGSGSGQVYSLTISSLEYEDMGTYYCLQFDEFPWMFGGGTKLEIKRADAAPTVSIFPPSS
Sequence of anti-idiotype antibody 3H1 (VH, as listed by the source, chain 2 of 2): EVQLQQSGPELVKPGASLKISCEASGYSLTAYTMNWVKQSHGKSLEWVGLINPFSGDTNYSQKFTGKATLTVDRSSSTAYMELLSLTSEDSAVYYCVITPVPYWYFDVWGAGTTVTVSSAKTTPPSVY

inhibition: 10 to 15%
Substance: control normal serum pool (antibody)

— patent publication US7300651
